T1: reduced recombinant human IL-33 (His-tagged, amino acids 112-270) (human, UniProt O95760 112-270)
T1 construct: range 112-270; Expressed in E. coli; kept in the reduced state (all four cysteines free) with TCEP; also called reduced hIL-33; hIL-33
T1 sequence: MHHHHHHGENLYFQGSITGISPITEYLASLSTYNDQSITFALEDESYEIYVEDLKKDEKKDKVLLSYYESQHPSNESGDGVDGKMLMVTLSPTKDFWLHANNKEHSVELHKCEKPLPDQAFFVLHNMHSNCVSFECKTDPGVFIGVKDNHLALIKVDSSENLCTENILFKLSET

B1: rat/human chimeric anti-hIL-33 3F10 MAb (antibody, human IgG1, kappa, V domains shown)
VH: QVQLEESGPGLVQPSQTLSLTCTVSGFSLTSQNVHWVRQPPGKGLEWMGRMRFNGDTSYNSTLKSRLSISRDTSKNQVFLRLNSLQTDDTGTYYCARQRDNYGSYYFDDWGQGIMVTVSS
VL: DTVLTQSPALAVSPGERVTISCRASESVLTLLNWYQQKPGQHPKLLIYLASHLESGVPARFSGRGSGTDFTLTIDPVEADDTASYYCQQSWIDPWTFGGGTTLELKR
notes: Rat variable domains on human IgG1/kappa constant regions; also called clone 3F10; capture MAb
B2: rat IgG2a anti-human IL-33 clone 15.21C7 (antibody, V domains shown)
VH: EVQLVESGGGLVQPGTSLKLSCVASGFTFSDFWMSWVRQTPGKTMEWIADIKNDGSHTKYAPSLQNRFTISRDNAKNTLYLEVTDVRSEDTATYYCTRVGGTYTAYYWGHGVMVTVSS
VL: DIQMTQTPSSMPASLGERVTLSCRTSQGINTYLNWYQQKPDGTITPLIHYTSNLESGVPSRFSGSGFGTDYFLTISSLEPEDFAMYFCQQYASSPWTFGGGTKLELKK
notes: also called rat anti-reduced hIL-33 15.21C7 IgG2a

How the values were obtained:
[1] = biological target: T1, reduced recombinant human IL-33 …; assay: SPR (Biacore), antibody captured, reduced hIL-33 as analyte
Description: (§1) A Series S Protein A sensor chip (Cytiva, Marlborough, MA, USA) was used to capture recombinant chimeric human IgG versions of anti-hIL-33 Abs using a BIACORE® 8 k instrument (Cytiva, Marlborough, MA, USA). Antibody binding to human histidine-tagged hIL-33 (Genentech, South San Francisco, CA, USA) was measured using multi-cycle kinetics. Sensorgrams were recorded using an injection time of 2 minutes with a flow rate of 30 μL/min, at 25° C. or 37° C., and with a running buffer of 10 mM N-2-hydroxyethylpiperazine-N′-2-ethanesulfonic acid (HEPES), pH 7.4, 150 mM sodium chloride (NaCl), 3 mM ethylenediaminetetraacetic acid (EDTA), and 0.005% TWEEN® 20. After injection, dissociation of hIL-33 from the antibody was monitored for 10 minutes in running buffer. The surface was regenerated between binding cycles with a 30 μL injection of 10 mM Glycine hydrochloric acid (HCl) pH 1.5. After subtraction of a blank containing running buffer only, sensorgrams were analyzed using a 1:1 Langmuir binding model with software supplied by the manufacturer to calculate the kinetics and binding constants.

[2] = biological target: T1, reduced recombinant human IL-33 …; assay: SPR (Biacore 8K), antibody captured on Protein A chip, reduced hIL-33 as analyte, multi-cycle kinetics, 25 C
Description: as §1

| Binder | Kd [1] [nM] | Kd [2] [nM] | koff [2] [s⁻¹] | kon [2] [M⁻¹ s⁻¹] |
| --- | --- | --- | --- | --- |
| B1 | 0.487 | 0.777 | 0.000243 | 312000 |
| B2 | 0.338 | 0.291 | 0.000146 | 501000 |

— patent US20250002575A1 (Genentech, published 2025)
